The IC50 is the midpoint of a concentration-inhibition curve. A low value points to higher potency.

The results in this text go back to patent EP2329839B1.

Assay [1] concerns the target MC3-R (mouse arcuate nucleus) (mouse) (UniProt P33033). Put plainly: cell-based or functional assay.
Assay [2] deals with µ opioid receptor (MOP-R) on mouse POMC neurons (mouse) (UniProt P42866). Nature of the assay: cell-based or functional assay.
For assay [3], the target named is T1, NPY Y2 receptor (on cell lines expressing it).
T1 sequence (P49146 whole entry, species assumed, looked up): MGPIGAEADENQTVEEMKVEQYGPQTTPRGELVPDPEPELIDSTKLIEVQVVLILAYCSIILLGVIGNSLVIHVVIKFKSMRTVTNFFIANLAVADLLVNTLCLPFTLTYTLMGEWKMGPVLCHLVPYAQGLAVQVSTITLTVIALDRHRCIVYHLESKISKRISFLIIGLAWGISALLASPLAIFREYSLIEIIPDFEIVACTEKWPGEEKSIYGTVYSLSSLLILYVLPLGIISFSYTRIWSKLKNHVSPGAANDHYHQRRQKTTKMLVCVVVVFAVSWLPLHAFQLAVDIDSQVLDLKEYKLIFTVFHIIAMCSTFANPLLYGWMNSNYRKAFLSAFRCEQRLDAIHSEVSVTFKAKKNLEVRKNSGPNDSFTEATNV
Put plainly: receptor-binding studies on cell lines expressing the NPY Y2 receptor; labelled ligand not named.

Several values for one entry are separate records, joined by “and”; a condition that tells them apart may be missing. Equal values may be shown once. Where no end group is shown, it is not given here.

Sequence of UniProt P42866 (P42866 whole entry): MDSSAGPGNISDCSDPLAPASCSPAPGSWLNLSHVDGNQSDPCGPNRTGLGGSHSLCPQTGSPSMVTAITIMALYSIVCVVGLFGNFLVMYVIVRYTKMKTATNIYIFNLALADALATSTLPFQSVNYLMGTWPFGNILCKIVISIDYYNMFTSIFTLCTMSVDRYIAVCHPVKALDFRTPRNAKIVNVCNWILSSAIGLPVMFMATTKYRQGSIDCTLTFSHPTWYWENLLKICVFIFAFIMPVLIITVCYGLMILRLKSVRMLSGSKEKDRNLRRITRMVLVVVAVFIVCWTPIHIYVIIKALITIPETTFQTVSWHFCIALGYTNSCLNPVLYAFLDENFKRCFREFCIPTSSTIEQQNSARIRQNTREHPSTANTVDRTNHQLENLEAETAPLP
Sequence of UniProt P33033 (P33033 whole entry): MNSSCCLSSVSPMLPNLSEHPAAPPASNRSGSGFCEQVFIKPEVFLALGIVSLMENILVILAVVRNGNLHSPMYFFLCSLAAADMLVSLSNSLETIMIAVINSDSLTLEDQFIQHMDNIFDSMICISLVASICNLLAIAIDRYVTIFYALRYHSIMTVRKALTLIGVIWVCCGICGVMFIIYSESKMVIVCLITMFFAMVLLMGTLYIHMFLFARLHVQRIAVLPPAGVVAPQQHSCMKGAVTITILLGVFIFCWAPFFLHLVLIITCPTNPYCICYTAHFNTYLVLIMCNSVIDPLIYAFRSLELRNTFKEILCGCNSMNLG

In assay [1], D-Trp^8-γMSH (peptide) showed a frequency of GABAergic IPSCs recorded from POMC neurons of 280%.
On to met-enkephalin (peptide), for which, in assay [2], the hyperpolarization of the membrane potential of POMC cells (whole cell recording, mouse slices) was 10 mV and 20 mV.
In the case of Ac-LRHYLNLLTRQRY (ends and bridges not checked) [N-acetyl (Leu^28, Leu^31) NPY (24-36)], in assay [3], the 50% inhibitory concentration (IC50) worked out at 1.3 nM.
